Our source for the Kd values is PMC2816219.

The target of the assay is F-actin (non-muscle human actin, pre-polymerized in vitro) (human) (UniProt P60709). The assay can be described thus: co-sedimentation; constant protein (16 nM GST-ARN127(25), 150 nM GST-Htt exon 1(25)) with increasing F-actin (0-8 µM or 0-16 µM); gels quantified for percent bound; approximate Kd.

One may read the Kd as the equilibrium constant for the complex coming apart. A lower Kd goes with higher affinity. As for “GST-ARN127(25) (from UniProt P10275 1-127) (domain or fragment)”, the Kd amounted to 1000 nM. In the case of GST-Htt exon 1(25) (domain or fragment), the Kd came out at 2000 nM.
